The values below come from patent US10287354 (Novartis, dated 2019).

Broadly, the EC50 is the concentration at which the effect is half-maximal. The low end stands for greater potency, the high end for weaker potency.

The target of assay [1] is T1, His-Avidin-FKBP (wild-type FKBP) (biotinylated).
T1 construct: also called biotinylated wild-type FKBP; biotinylated FKBP
Description: AlphaLISA direct binding assay: 30 nM FLAG-FRB and 30 nM biotinylated FKBP, everolimus titrated 1:3 from 600 nM (EC50 is of everolimus). The protocol:
(§1) FRB mutations were also ranked in an alternative assay format. […] All dilutions were made in 1× AlphaLISA Immunoassay buffer (PerkinElmer). Anti-Flag acceptor beads (PerkinElmer) were added at 10 ug/ml final concentration and incubated for one hour at room temperature. Streptavidin donor beads (PerkinElmer), were then added at a final concentration of 40 ug/ml and the plate was protected from light and incubated for 30 minutes at room temperature. The plate was then read on the PerkinElmer EnVision Multiplate reader equipped with the Alpha Module using excitation of 680 nm and a 570 nm Emission filter.

Assay [2] deals with T1, His-Avidin-FKBP (wild-type FKBP). Description: AlphaLISA direct binding assay, EC50 relative to wild type FLAG-FRB. The method, then: as §1

Substitutions are numbered along the chain they refer to.

T1 sequence (chain, as listed by the source limits assumed): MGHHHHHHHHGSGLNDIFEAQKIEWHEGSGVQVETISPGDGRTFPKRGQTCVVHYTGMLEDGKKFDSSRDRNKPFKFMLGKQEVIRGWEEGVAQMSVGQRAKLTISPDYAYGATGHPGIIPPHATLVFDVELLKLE

B1: His-FLAG-FRB (wild-type FRB) (other)
chain: MGHHHHHHHHGSDYKDDDDKGSASRILWHEMWHEGLEEASRLYFGERNVKGMFEVLEPLHAMMERGPQTLKETSFNQAYGRDLMEAQEWCRKYMKSGNVKDLTQAWDLYYHVFRRISKTS
notes: also called wild type Flag-FRB
In turn, B1 yielded an EC50 in assay [1] of 3.9 nM.

B2: His-FLAG-FRB E2032L (other)
chain: B1 chain with E37L
notes: The entry already carries the mutation
Molecule B2 returned an EC50 in assay [1] of 2.15 nM. Moreover, the “fold improvement over wild type FRB” value in assay [2] was 1.5 to 2 fold.

B3: His-FLAG-FRB E2032I (other)
chain: B1 chain with E37I
notes: as for B2
Consider B3, for which, in assay [1], the EC50 worked out at 2.46 nM. In assay [2], the “fold improvement over wild type FRB” value is 1.5 to 2 fold.

B4: His-FLAG-FRB T2098L (other)
chain: B1 chain with T103L
notes: as for B2
B4: the EC50 in assay [1] was determined as 1.44 nM. Further, the “fold improvement over wild type FRB” value in assay [2] amounted to 3 fold.
